# B1: ligand 25/9 dimer (ssRNA)
# RNA: GGGAGACAAGAAUAAACGCUCAACAGUGAUUGAACGAUCCUUUCAGCUGGUGGGUAUGGUCCCGGAGUCUCGUUGGUCGUUGAACGAUCCUUCGACAGGAGGCUCA
# modifications: 2'-F all pyrimidines
# B2: 2nd generation ligand 18 (ssRNA)
# RNA: GGGAGGACGAUGCGGCAUUCGCUGAUUCUUGAACGAUCCUUGAUGAUGUGGAUGCAGACGACUCGCCCGA
# modifications: 2'-F all pyrimidines
# B3: H-42 (ssRNA)
# RNA: GGGAGGACGAUGCGGACAAGGGCCUGAGUGUGGAGGGCACGUGGAGGGGACUGGCCAGACGACUCGCCCGA
# modifications: 2'-NH2 all pyrimidines
# B4: H-17 (ssRNA)
# RNA: GGGAGGACGAUGCGGAGGGAACGCGGAGGGGUGUGUCCCCCAGACUACAAGGCGGCAGACGACUCGCCCGA
# modifications: 2'-NH2 all pyrimidines
# Assays:
# [1] = molecular target: T1, human chorionic gonadotropin (hCG) heterodimer (Homo sapiens, UniProt P01215;P0DN86 P01215:25-116,P0DN86:21-165); test: filter; details: tags: Calbiochem or Vitro Diagnostics (14,000 IU/mg); chain copies: alpha/beta heterodimer (stated); label: 32P; two hairpins
# T1 sequence (P01215 25-116, chain 1 of 2, other chains not shown): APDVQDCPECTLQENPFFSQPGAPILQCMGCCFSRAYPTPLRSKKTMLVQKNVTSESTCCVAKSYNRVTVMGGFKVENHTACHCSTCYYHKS
# [2] = molecular target: T1, human chorionic gonadotropin (hCG) …; test: filter; 17.2% bound at 100 nM; details: tags: Calbiochem or Vitro Diagnostics (14,000 IU/mg); chain copies: alpha/beta heterodimer (stated); label: 32P; hairpin
# [3] = molecular target: human luteinizing hormone (hLH) (Homo sapiens, UniProt P01215;P01229 P01215:25-116,P01229:21-141); test: filter; Mg, pH 6.5; <2-fold change at pH 7.0; details: tags: Becton Dickinson (2'-NH2 work); Scripps/Vitro Diagnostics (2'-F work); chain copies: alpha/beta heterodimer (inferred); label: 32P
# human luteinizing hormone (hLH), sequence (P01215 25-116, chain 1 of 2): as the sequence (P01215 25-116, chain 1 of 2, other chains not shown) above
# human luteinizing hormone (hLH), sequence (P01229 21-141, chain 2 of 2): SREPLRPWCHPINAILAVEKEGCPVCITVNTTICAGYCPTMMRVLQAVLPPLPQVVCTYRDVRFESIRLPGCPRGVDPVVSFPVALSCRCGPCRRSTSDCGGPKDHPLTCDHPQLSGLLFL
# [4] = molecular target: glycoprotein hormone common alpha-subunit (UniProt P01215 P01215:25-116); test: filter; details: tags: UCB-bioproducts; label: 32P
# glycoprotein hormone common alpha-subunit, sequence (P01215 25-116, one chain of several): as the sequence (P01215 25-116, chain 1 of 2, other chains not shown) above
# Protocol: (§1) Internally-labeled RNA transcripts were prepared by including [α-^32P]ATP in T7 RNA polymerase transcription reactions. Full-length transcripts were purified on 8% denaturing polyacrylamide gels to ensure size homogeneity. Gel-purified RNA was diluted to a concentration of ~5 nM in TEM buffer, heated to 80° C. then chilled on ice to facilitate secondary structure formation. RNA concentrations were kept lower than 100 pM in binding reactions. Briefly, equal amounts of RNA were incubated with varying amounts of hormone in 50 μL of TEM buffer for 10 minutes at 37° C. RNA-protein mixtures were passed through pre-wet nitrocellulose filters (0.2μ), and the filters were immediately washed with 5 mL of binding buffer. Radioactivity retained on filters was determined by liquid scintillation counting. The quantities of RNA bound to filters in the absence of protein was determined and used for background correction. The percentage of input RNA retained on each filter was plotted against the corresponding log protein concentration. The nonlinear least square method was used to obtain the dissociation constant (K_d) (Jellinek et al. (1993) Proc. Natl. Acad. Sci. U.S.A. 90:11227–11231; Irvine et al. (1991) J. Mol. Biol. 222:739–761).
# (§2) By incorporating a counterselection step, SELEX allowed the isolation of hCG-specific RNA ligands (Example 5, infra).
# [5] = molecular target: hCG beta-subunit (Homo sapiens, UniProt P0DN86 P0DN86:21-165); test: filter; details: tags: Calbiochem or Vitro Diagnostics; label: 32P
# Protocol: as §1, §2
# [6] = molecular target: T1, human chorionic gonadotropin (hCG) …; test: filter; Mg, pH 6.5; Kd rises >25-fold at pH 7.0; details: tags: Calbiochem or Vitro Diagnostics (14,000 IU/mg); chain copies: alpha/beta heterodimer (stated); label: 32P
# [7] = molecular target: T1, human chorionic gonadotropin (hCG) …; test: filter; +/- 3 nM (Table 5); details: tags: Calbiochem or Vitro Diagnostics (14,000 IU/mg); chain copies: alpha/beta heterodimer (stated); label: 32P; G4 (RNase T1 protection in K+)
binder,measurement,setting,value
B1,Kd,[1],~200 nM
B2,Kd,[2],150 nM
B3,Kd,[3],15 nM
same,Kd,[4],~1400 nM
same,Kd,[5],~200 nM
same,Kd,[6],6.2 nM
B4,Kd,[7],7.5 nM
